The values below come from US20120316071A1 (published 2012).

B1: Fab VH5-51_IGHD5-18*01>3_IGHJ4*01 G100K/G104T G24T/S28R/G35V (H:KT TRV) & V3-4_IGLJ1*01 M94V (Fab, V domains shown)
VH: EVQLVQSGAEVKKPGESLKISCKTSGYRFTSYWIVWVRQMPGKGLEWMGIIYPGDSDTRYSPSFQGQVTISADKSISTAYLQWSSLKASDTAMYYCARRKYSYTYDYFDYWGQGTLVTVSS
VL: QTVVTQEPSFSVSPGGTVTLTCGLSSGSVSTSYYPSWYQQTPGQAPRTLIYSTNTRSSGVPDRFSGSILGNKAALTITGAQADDESDYYCVLYVGSGISYVFGTGTKVTVL
notes: Fab; expressed from plasmid A (CH1, His6 and Flag tags) and plasmid E (lambda CL)
B2: Fab VH5-51_IGHD5-18*01>3_IGHJ4*01 G100K/G104T G24T/S28R/G35V (H:KT TRV) & V3-4_IGLJ1*01 M94T (Fab, V domains shown)
VH: EVQLVQSGAEVKKPGESLKISCKTSGYRFTSYWIVWVRQMPGKGLEWMGIIYPGDSDTRYSPSFQGQVTISADKSISTAYLQWSSLKASDTAMYYCARRKYSYTYDYFDYWGQGTLVTVSS
VL: QTVVTQEPSFSVSPGGTVTLTCGLSSGSVSTSYYPSWYQQTPGQAPRTLIYSTNTRSSGVPDRFSGSILGNKAALTITGAQADDESDYYCVLYTGSGISYVFGTGTKVTVL
notes: as for B1
B3: Fab VH5-51_IGHD5-18*01>3_IGHJ4*01 G100K/G104T G24T/S28R/G35V (H:KT TRV) & V3-4_IGLJ1*01 M94E (Fab, V domains shown)
VH: EVQLVQSGAEVKKPGESLKISCKTSGYRFTSYWIVWVRQMPGKGLEWMGIIYPGDSDTRYSPSFQGQVTISADKSISTAYLQWSSLKASDTAMYYCARRKYSYTYDYFDYWGQGTLVTVSS
VL: QTVVTQEPSFSVSPGGTVTLTCGLSSGSVSTSYYPSWYQQTPGQAPRTLIYSTNTRSSGVPDRFSGSILGNKAALTITGAQADDESDYYCVLYEGSGISYVFGTGTKVTVL
notes: as for B1
B4: Fab VH5-51_IGHD5-18*01>3_IGHJ4*01 G100K/G104T G24T/S28R/G35V (H:KT TRV) & V3-4_IGLJ1*01 M94L (Fab, V domains shown)
VH: EVQLVQSGAEVKKPGESLKISCKTSGYRFTSYWIVWVRQMPGKGLEWMGIIYPGDSDTRYSPSFQGQVTISADKSISTAYLQWSSLKASDTAMYYCARRKYSYTYDYFDYWGQGTLVTVSS
VL: QTVVTQEPSFSVSPGGTVTLTCGLSSGSVSTSYYPSWYQQTPGQAPRTLIYSTNTRSSGVPDRFSGSILGNKAALTITGAQADDESDYYCVLYLGSGISYVFGTGTKVTVL
notes: as for B1
B5: Fab VH5-51_IGHD5-18*01>3_IGHJ4*01 G100K/G104T G24T/S28R/G35V (H:KT TRV) & V3-4_IGLJ1*01 M94R (Fab, V domains shown)
VH: EVQLVQSGAEVKKPGESLKISCKTSGYRFTSYWIVWVRQMPGKGLEWMGIIYPGDSDTRYSPSFQGQVTISADKSISTAYLQWSSLKASDTAMYYCARRKYSYTYDYFDYWGQGTLVTVSS
VL: QTVVTQEPSFSVSPGGTVTLTCGLSSGSVSTSYYPSWYQQTPGQAPRTLIYSTNTRSSGVPDRFSGSILGNKAALTITGAQADDESDYYCVLYRGSGISYVFGTGTKVTVL
notes: as for B1
B6: Fab VH1-46_IGHD6-6*01_IGHJ1*01 S102A/S103P/S104F/H111F (APFF) & L6_IGKJ1*01 S31Q (Fab, V domains shown)
VH: QVQLVQSGAEVKKPGASVKVSCKASGYTFTSYYMHWVRQAPGQGLEWMGIINPSGGSTSYAQKFQGRVTMTRDTSTSTVYMELSSLRSEDTAVYYCAREEYAPFSAEYFQFWGQGTLVTVSS
VL: EIVLTQSPATLSLSPGERATLSCRASQSVSQYLAWYQQKPGQAPRLLIYDASNRATGIPARFSGSGSGTDFTLTISSLEPEDFAVYYCQQRSNWPPWTFGQGTKVEIKR
notes: Fab made in E. coli; The constant parts (CH1 with His6 and Flag tags from plasmid A, kappa CL from plasmid C) are not added here; also called APFF & S31Q
B7: Fab VH1-46_IGHD6-6*01_IGHJ1*01 S102A/S103P/S104F/H111F (APFF) & L6_IGKJ1*01 S31T (Fab, V domains shown)
VH: QVQLVQSGAEVKKPGASVKVSCKASGYTFTSYYMHWVRQAPGQGLEWMGIINPSGGSTSYAQKFQGRVTMTRDTSTSTVYMELSSLRSEDTAVYYCAREEYAPFSAEYFQFWGQGTLVTVSS
VL: EIVLTQSPATLSLSPGERATLSCRASQSVSTYLAWYQQKPGQAPRLLIYDASNRATGIPARFSGSGSGTDFTLTISSLEPEDFAVYYCQQRSNWPPWTFGQGTKVEIKR
notes: Fab made in E. coli; The constant parts (CH1 with His6 and Flag tags from plasmid A, kappa CL from plasmid C) are not added here; also called APFF & S31T
B8: Fab VH1-46_IGHD6-6*01_IGHJ1*01 S102A/S103P/S104F/H111F (APFF) & L6_IGKJ1*01 S31Y (Fab, V domains shown)
VH: QVQLVQSGAEVKKPGASVKVSCKASGYTFTSYYMHWVRQAPGQGLEWMGIINPSGGSTSYAQKFQGRVTMTRDTSTSTVYMELSSLRSEDTAVYYCAREEYAPFSAEYFQFWGQGTLVTVSS
VL: EIVLTQSPATLSLSPGERATLSCRASQSVSYYLAWYQQKPGQAPRLLIYDASNRATGIPARFSGSGSGTDFTLTISSLEPEDFAVYYCQQRSNWPPWTFGQGTKVEIKR
notes: Fab made in E. coli; The constant parts (CH1 with His6 and Flag tags from plasmid A, kappa CL from plasmid C) are not added here; also called APFF & S31Y
B9: Fab VH1-46_IGHD6-6*01_IGHJ1*01 S102A/S103P/S104F/H111F (APFF) & L6_IGKJ1*01 S31R (Fab, V domains shown)
VH: QVQLVQSGAEVKKPGASVKVSCKASGYTFTSYYMHWVRQAPGQGLEWMGIINPSGGSTSYAQKFQGRVTMTRDTSTSTVYMELSSLRSEDTAVYYCAREEYAPFSAEYFQFWGQGTLVTVSS
VL: EIVLTQSPATLSLSPGERATLSCRASQSVSRYLAWYQQKPGQAPRLLIYDASNRATGIPARFSGSGSGTDFTLTISSLEPEDFAVYYCQQRSNWPPWTFGQGTKVEIKR
notes: Fab made in E. coli; The constant parts (CH1 with His6 and Flag tags from plasmid A, kappa CL from plasmid C) are not added here; also called APFF & S31R
B10: Fab VH1-46_IGHD6-6*01_IGHJ1*01 S102A/S103P/S104F/H111F (APFF) & L6_IGKJ1*01 S31V (Fab, V domains shown)
VH: QVQLVQSGAEVKKPGASVKVSCKASGYTFTSYYMHWVRQAPGQGLEWMGIINPSGGSTSYAQKFQGRVTMTRDTSTSTVYMELSSLRSEDTAVYYCAREEYAPFSAEYFQFWGQGTLVTVSS
VL: EIVLTQSPATLSLSPGERATLSCRASQSVSVYLAWYQQKPGQAPRLLIYDASNRATGIPARFSGSGSGTDFTLTISSLEPEDFAVYYCQQRSNWPPWTFGQGTKVEIKR
notes: Fab made in E. coli; The constant parts (CH1 with His6 and Flag tags from plasmid A, kappa CL from plasmid C) are not added here; also called APFF & S31V

The first test concerns the target T1, Recombinant Human DLL4 (human, UniProt Q9NR61 27-524).
T1 construct: Bought recombinant human DLL4 (R&D Systems Cat#1506-D4/CF); also called delta-like protein 4; Delta-like 4
Kind of test: ELISA, DLL4 coated on the plate, Fab at 100 nM, signal minus blank. On the technique in general: In an ELISA, binding on a coated surface is turned into a signal by an enzyme label.
With B1, the “ELISA Signal-blank (100 nM Fab)” value is 0.315.
The same measure, in the same setting: for B2 the value was 0.395.
Still for that read-out and setting: the result for B3 reads 0.171; that for B4, 0.388.
Regarding B5, the “ELISA Signal-blank (100 nM Fab)” value was 0.197.

The target in a further test is T2, Recombinant Human DLL4 (delta-like protein 4) (human, UniProt Q9NR61 27-524).
T2 construct: Bought recombinant human DLL4 (R&D Systems Cat#1506-D4/CF); also called rHuman DLL4
Kind of test: ECL (MSD) multispot binding assay, antigen spotted on plate, Fab in solution.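 Also: purified Fab incubated 1 h at 20 °C, detected via TAG-labelled antibody electrochemiluminescence, antigen spot compared with the blank in the same well, ratio at least 4 counted as hit.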
With B6, the “ECL signal” value is 165000 and the Signal/Blank was determined as 406.
The corresponding values for B7 are 191000 and 576.
The corresponding values for B8 are 188000 and 662.
Turning to B9, the “ECL signal” value turned out to be 166000 and the Signal/Blank stood at 558.
In the case of B10, the Signal/Blank is 511.
